Common to all, as to assay: SPR
For orientation: In SPR one partner is held on a chip, and binding of the other changes the refractive index at the surface.

Experiment [1] addresses T1, human IL-17A (recombinant) (human, UniProt Q16552 24-155).
Experiment [2] addresses T1, human IL-17A (recombinant). This is another data set of the same source.
Experiment [3] has as its target T1, human IL-17A (recombinant). The source holds these as a separate data set.

In general, Kd refers to the free concentration of one partner at which half of the binding sites on the other are occupied at equilibrium, for simple one-to-one binding. Broadly, the koff is the rate constant with which the complex falls apart.

Substitutions are numbered along the chain they refer to. Read-outs that look alike come from different tables or passages of the source.

T1 sequence (Q16552 24-155): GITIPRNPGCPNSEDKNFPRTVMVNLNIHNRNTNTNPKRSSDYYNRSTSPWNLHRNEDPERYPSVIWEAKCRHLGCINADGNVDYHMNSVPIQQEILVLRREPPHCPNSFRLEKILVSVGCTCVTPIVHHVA

B1: BDG11.007 (human IgG1) (antibody, V domains shown)
VH: EVQLVQSGAEVKKPGESLKISCKGSGYSFTSYWIGWVRQMPGKGLEWMGIIYPSDSDTRYSPSFQGQVTISADKSISTAYLQWSSLKASDTAMYYCARYPNYGAFDIWGQGTMVTVSS
VL: EIVLTQSPATLSLSPGERATLSCRASQSVWSYLAWYQQKPGQAPRLLIYDASNRATGIPARFSGSGSGTDFTLTISSLEPEDFAVYYCQQYFNWGWPFGQGTKLEIK
For B1, the Kd in experiment [1] worked out at 2.61 nM. In experiment [2], the koff came to 0.0045 s⁻¹.

B2: BDG11.003 (human IgG1) (antibody, V domains shown)
VH: B1 VH
VL: B1 VL with W30F, N93Y
As for B2, in experiment [1], the Kd was found to be 0.935 nM. For the same molecule, the koff in experiment [2] is 0.000641 s⁻¹.

B3: BDG11.004 (human IgG1) (antibody, V domains shown)
VH: B1 VH
VL: B1 VL with W30S, N93Y
For the molecule B3, the Kd in experiment [1] was 8.69 nM. The koff in experiment [2] amounted to 0.00221 s⁻¹.

B4: BDG11.001 (clone 11.4C_11.001 as soluble human IgG1) (antibody, V domains shown)
VH: B1 VH
VL: B1 VL with N93Y
With B4, the koff in experiment [3] came out at 0.000634 s⁻¹.

B5: BDG11.006 (human IgG1) (antibody, V domains shown)
VH: B1 VH
VL: B1 VL with N93Y, W94N
Consider B5, for which the Kd in experiment [1] worked out at 0.697 nM. The off-rate (koff) in experiment [2] was found to be 0.0009 s⁻¹.

For the origin of these results see publication PMC10542344 (2023).
